Assay [1] concerns the target T1, mouse PDL1 (R&D Systems) (mouse, UniProt Q9EP73 19-238).
T1 construct: also called mPDL1; murine PDL1
Kind of assay: phage ELISA on adsorbed mouse PDL1, PD1-Fc as competitor. The source says: Bound phage were visualized with an anti-M13-HRP conjugate (GE Healthcare, Piscataway, N.Y.) and developed with the chromogenic substrate tetramethyl benzidine (TMB) (Thermo Scientific, Rockford, Ill.).
(ELISA stands for enzyme-linked immunosorbent assay.)

Another assay addresses T2, human PDL1 (R&D Systems) (human, UniProt Q9NZQ7 19-239).
T2 construct: also called hPDL1; recombinant human PDL1 protein
Kind of assay: phage ELISA, antigen adsorbed, anti-M13-HRP. The text has this:
(§1) Phage were applied to the plate and allowed to bind. Bound phage were visualized with an anti-M13-HRP conjugate (GE Healthcare, Piscataway, N.Y.) and developed with the chromogenic substrate tetramethyl benzidine (TMB) (Thermo Scientific, Rockford, Ill.).

Assay [2] deals with T1, mouse PDL1 (R&D Systems). Description: phage ELISA, antigen adsorbed, anti-M13-HRP.
Text: as §1

Assay [3] has as its target T3, human PDL1-Fc (R & D Systems) (human, UniProt Q9NZQ7 19-239).
T3 construct: Bought reagent; not shown: Fc part of the bought fusion protein; not described
Kind of assay: ELISA, PDL1-Fc adsorbed, anti-human IgG (Fab specific)-HRP. The protocol:
(§2) Bound antibody was visualized with an anti-human IgG-HRP conjugate, Fab specific, (Sigma, St Louis, Mo.; Cat # A0293-1ML) and developed with the chromogenic substrate TMB. […] Table 5 provides the SEQ ID NOs for the nucleic acid sequences and amino acids sequences of the respective variable heavy chains.
(§3) Bound antibody was visualized with an anti-human IgG-HRP conjugate, Fab specific, (Sigma, St Louis, Mo.; Cat # A0293-1ML) and developed with the chromogenic substrate TMB.

Assay [4] concerns the target T4, mouse PDL1-Fc (R & D Systems) (mouse, UniProt Q9EP73 19-238).
T4 construct: Bought reagent; not shown: Fc part of the bought fusion protein; not described
Described as above. The protocol:
as §2, §3

The target of the next assay is T5, human B7H3 (R&D Systems) (human, UniProt Q5ZPR3-2 29-245, limits assumed).
T5 sequence (looked up): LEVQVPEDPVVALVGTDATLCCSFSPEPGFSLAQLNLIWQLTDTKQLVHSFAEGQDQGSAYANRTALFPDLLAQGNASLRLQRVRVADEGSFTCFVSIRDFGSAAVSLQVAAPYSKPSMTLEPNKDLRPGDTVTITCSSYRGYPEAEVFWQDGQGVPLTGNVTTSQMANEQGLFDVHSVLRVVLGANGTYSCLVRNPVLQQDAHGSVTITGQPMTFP
Kind of assay: ELISA, antigen adsorbed. The protocol:
as §3

The target in assay [5] is T6, human CD28-Fc (R&D Systems) (human, UniProt P10747 19-152).
T6 construct: not shown: Fc part of the bought fusion protein; not described
Description: ELISA, antigen adsorbed. The protocol: as §3

In assay [6] the target is T7, human B7-1-Fc (R&D Systems) (human, UniProt P33681 35-242).
T7 construct: not shown: Fc part of the bought fusion protein; not described
T7 sequence (looked up): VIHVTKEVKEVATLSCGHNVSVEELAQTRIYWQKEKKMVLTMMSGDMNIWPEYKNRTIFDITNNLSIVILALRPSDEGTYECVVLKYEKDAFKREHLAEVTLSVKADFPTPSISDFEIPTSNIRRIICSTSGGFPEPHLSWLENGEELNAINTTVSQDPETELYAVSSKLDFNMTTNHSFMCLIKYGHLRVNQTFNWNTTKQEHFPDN
Description: ELISA, antigen adsorbed. Here is the method: as §3

Assay [7] addresses T7, human B7-1-Fc (R&D Systems). Description: Fab-phage ELISA, antigen adsorbed. The text has this: (§4) Forty seven (47) individual isolates were chosen from the final pool. […] Briefly, the antigens were adsorbed to the wells of a 96-well ELISA plate, each ligand on a separate plate. Phage were applied to correlative wells on each plate and allowed to bind. Bound phage were visualized with an anti-M13-HRP conjugate and developed with the chromogenic substrate TMB. Based on the results of the ELISA and DNA sequence, 6 unique clones with matured heavy variable CDR3 domains and 10 heavy variable CDR2 domains were chosen for further study. […] Table 4 lists the heavy variable domains encoded by the clones and SEQ ID NOs for the nucleic acid sequences and amino acid sequences of their respective heavy chains.

For assay [8], the target named is T3, human PDL1-Fc (R & D Systems). Kind of assay: ELISA saturation binding, PDL1-Fc adsorbed. The protocol: as §3
Assay [9] addresses T4, mouse PDL1-Fc (R & D Systems). Kind of assay: ELISA saturation binding, PDL1-Fc adsorbed. Here is the method:
as §3

Assay [10] concerns the target T3, human PDL1-Fc (R & D Systems). Kind of assay: ELISA saturation binding (figure legend). The protocol: as §3
The target in a further assay is rat PDL1 (rat, UniProt D4AE25 19-239). Kind of assay: ELISA, PDL1 adsorbed. The protocol: as §3
rat PDL1, sequence (D4AE25 entry or part of it limits assumed, form in doubt): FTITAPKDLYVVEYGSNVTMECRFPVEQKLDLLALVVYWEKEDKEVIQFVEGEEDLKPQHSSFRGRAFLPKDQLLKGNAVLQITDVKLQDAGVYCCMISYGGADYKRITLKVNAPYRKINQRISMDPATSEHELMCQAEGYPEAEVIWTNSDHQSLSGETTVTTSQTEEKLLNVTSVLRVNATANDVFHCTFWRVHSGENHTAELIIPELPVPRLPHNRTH
For assay [11], the target named is T8, cynomolgus monkey (cyno) PDL1-Fc (Sino biological) (cynomolgus monkey, UniProt G7PSE7 19-239).
T8 construct: Bought reagent; not shown: Fc part of the bought fusion protein; not described
T8 sequence (G7PSE7 entry or part of it): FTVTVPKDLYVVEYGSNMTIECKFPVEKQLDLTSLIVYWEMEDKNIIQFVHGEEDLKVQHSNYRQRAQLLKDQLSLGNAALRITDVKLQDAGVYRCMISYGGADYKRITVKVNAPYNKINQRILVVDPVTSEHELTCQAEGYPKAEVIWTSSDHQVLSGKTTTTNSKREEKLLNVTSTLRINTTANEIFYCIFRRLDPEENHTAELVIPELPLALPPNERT
Description: ELISA, PDL1 adsorbed. The protocol: as §3

In assay [12] the target is T3, human PDL1-Fc (R & D Systems). Kind of assay: ELISA, PDL1 adsorbed. Here is the method: as §3
The target in assay [13] is T4, mouse PDL1-Fc (R & D Systems). Description: ELISA, PDL1 adsorbed. The protocol:
as §3

In assay [14] the target is T3, human PDL1-Fc (R & D Systems). Description: Fab-phage ELISA, antigen adsorbed.
Text: as §4

This passage reports binding result, Kd and EC50 results from US20190382493A1 (CYTOMX THERAPEUTICS, published 2019).

Broadly, the Kd is the concentration at which binding is half-saturated. The EC50 is the concentration that produces a half-maximal response.

T4 sequence (Q9EP73 19-238 limits assumed): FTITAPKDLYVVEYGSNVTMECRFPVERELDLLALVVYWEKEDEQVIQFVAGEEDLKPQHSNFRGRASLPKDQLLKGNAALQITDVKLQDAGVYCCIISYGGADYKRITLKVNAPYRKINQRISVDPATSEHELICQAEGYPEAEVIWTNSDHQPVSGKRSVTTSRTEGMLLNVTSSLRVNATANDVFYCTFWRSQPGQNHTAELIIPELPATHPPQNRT
T3 sequence (Q9NZQ7 19-239 limits assumed): as the sequence (G7PSE7 entry or part of it) above, with T33A, S34A, N62S, Q68R, R82Q, L173F, A185T, I192T, L215H counted along it
T1 sequence (Q9EP73 19-238 limits assumed): as the sequence (Q9EP73 19-238 limits assumed) above
T2 sequence (Q9NZQ7 19-239 limits assumed): as the sequence (G7PSE7 entry or part of it) above, with T33A, S34A, N62S, Q68R, R82Q, L173F, A185T, I192T, L215H counted along it

B1: mouse PD1-Fc (R&D Systems) (Fc fusion, UniProt Q02242 25-167, looked up)
chain: LEVPNGPWRSLTFYPAWLTVSEGANATFTCSLSNWSEDLMLNWNRLSPSNQTEKQAAFCNGLSQPVQDARFQIIQLPNRHDFHMNILDTRRNDSGIYLCGAISLHPKAKIEESPGAELVVTERILETSTRYPSPSPKPEGRFQ
notes: Bought reagent; also called mPD1; not shown: Fc part of the bought fusion protein; not described
Consider B1, for which, in the assay with mouse PDL1 (R&D Systems) [1], the binding result was “binds”.

B2: PDL1 c60 ScFv-phage (scFv)
scFv: EVQLLESGGGLVQPGGSLRLSCAASGFTFSSYAMSWVRQAPGKGLEWVSSIYSTGGATAYADSVKGRFTISRDNSKNTLYLQMNSLRAEDTAVYYCAKSSAGFDYWGQGTLVTVSSGGGGSGGGGSGGGGSTDIQMTQSPSSLSASVGDRVTITCRASQSISSYLNWYQQKPGKAPKLLIYYASTLQSGVPSRFSGSGSGTDFTLTISSLQPEDFATYYCQQDNGYPSTFGQGTKVEIKR
notes: also called clone 60
With B2, the binding result with human PDL1 (R&D Systems) and in the assay with mouse PDL1 (R&D Systems) [2] was “binds” throughout.

B3: anti-PDL1 antibody C5H9 (antibody, V domains shown)
VH: EVQLLESGGGLVQPGGSLRLSCAASGFTFSSYAMSWVRQAPGKGLEWVSSIWRNGIVTVYADSVKGRFTISRDNSKNTLYLQMNSLRAEDTAVYYCAKWSAAFDYWGQGTLVTVSS
VL: DIQMTQSPSSLSASVGDRVTITCRASQSISSYLNWYQQKPGKAPKLLIYYASTLQSGVPSRFSGSGSGTDFTLTISSLQPEDFATYYCQQDNGYPSTFGQGTKVEIKR
notes: Fully human IgG; also called PDL1 C5H9
On to B3, for which the binding result is “binds” in assay [3]; “binds” in assay [4]; “no binding” in the assay with human B7H3 (R&D Systems); “no binding” in assay [5]; “no binding” in assay [6].

B4: PDL1 E11 Fab-phage (Fab, V domains shown)
VH: EVQLLESGGGLVQPGGSLRLSCAASGFTFSSYAMSWVRQAPGKGLEWVSDIWKQGFATADSVKGRFTISRDNSKNTLYLQMNSLRAEDTAVYYCAKSSAGFDYWGQGTLVTVSS
VL: DIQMTQSPSSLSASVGDRVTITCRASQSISSYLNWYQQKPGKAPKLLIYYASTLQSGVPSRFSGSGSGTDFTLTISSLQPEDFATYYCQQDNGYPSTFGQGTKVEIKR
As for B4, in [7], the binding result is “no binding”.

B5: fully human anti-PDL1 c60 IgG (antibody, V domains shown)
VH: EVQLLESGGGLVQPGGSLRLSCAASGFTFSSYAMSWVRQAPGKGLEWVSSIYSTGGATAYADSVKGRFTISRDNSKNTLYLQMNSLRAEDTAVYYCAKSSAGFDYWGQGTLVTVSS
VL: DIQMTQSPSSLSASVGDRVTITCRASQSISSYLNWYQQKPGKAPKLLIYYASTLQSGVPSRFSGSGSGTDFTLTISSLQPEDFATYYCQQDNGYPSTFGQGTKVEIKR
notes: Fully human IgG with the variable domains of PDL1 c60; also called anti-PDL1 clone 60:IgG
With B5, the Kd was 1 nM in assay [8], 30 nM in assay [9] and ~1 nM in [10].

B6: anti-PDL1 antibody G12B10 (antibody, V domains shown)
VH: EVQLLESGGGLVQPGGSLRLSCAASGFTFSSYAMSWVRQAPGKGLEWVSSIWYQGLVTVYADSVKGRFTISRDNSKNTLYLQMNSLRAEDTAVYYCAKWSAGYDYWGQGTLVTVSS
VL: DIQMTQSPSSLSASVGDRVTITCRASQSISSYLNWYQQKPGKAPKLLIYYASTLQSGVPSRFSGSGSGTDFTLTISSLQPEDFATYYCQQDNGYPSTFGQGTKVEIKR
notes: Fully human IgG; also called PDL1 G12B10
Turning to B6, the binding result in assay [3] was “binds”.

B7: anti-PDL1 antibody C5B10 (antibody, V domains shown)
VH: EVQLLESGGGLVQPGGSLRLSCAASGFTFSSYAMSWVRQAPGKGLEWVSSIWRNGIVTVYADSVKGRFTISRDNSKNTLYLQMNSLRAEDTAVYYCAKWSAGYDYWGQGTLVTVSS
VL: DIQMTQSPSSLSASVGDRVTITCRASQSISSYLNWYQQKPGKAPKLLIYYASTLQSGVPSRFSGSGSGTDFTLTISSLQPEDFATYYCQQDNGYPSTFGQGTKVEIKR
notes: Fully human IgG; also called PDL1 C5B10
For the molecule B7, the binding result in assay [3] is reported as “binds”; in assay [5], “no binding”; in [6], “no binding”.

B8: anti-PDL1 antibody C5H9v2 (antibody, V domains shown)
VH: EVQLLESGGGLVQPGGSLRLSCAASGFTFSSYAMSWVRQAPGKGLEWVSSIWRNGIVTVYADSVKGRFTISRDNSKNTLYLQMNSLRAEDTAVYYCAKWSAAFDYWGQGTLVTVSS
VL: DIQMTQSPSSLSASVGDRVTITCRASQSISSYLNWYQQKPGKAPKLLIYAASSLQSGVPSRFSGSGSGTDFTLTISSLQPEDFATYYCQQDNGYPSTFGGGTKVEIKR
notes: IgG; also called anti-PDL1 parental antibody C5H9v2
Regarding B8, the EC50 in the assay with rat PDL1 is 0.31 nM; in [11] it was 0.28 nM; in assay [12], 0.25 nM; in assay [13], 0.3 nM.

B9: anti-PDL1 antibody C5E10 (antibody, V domains shown)
VH: EVQLLESGGGLVQPGGSLRLSCAASGFTFSSYAMSWVRQAPGKGLEWVSSIWRNGIVTVYADSVKGRFTISRDNSKNTLYLQMNSLRAEDTAVYYCAKWSKGFDYWGQGTLVTVSS
VL: DIQMTQSPSSLSASVGDRVTITCRASQSISSYLNWYQQKPGKAPKLLIYYASTLQSGVPSRFSGSGSGTDFTLTISSLQPEDFATYYCQQDNGYPSTFGQGTKVEIKR
notes: Fully human IgG
Turning to B9, the binding result is recorded as “binds” in assay [3], “no binding” in assay [5] and “no binding” in assay [6].

B10: anti-PDL1 antibody G12H9 (antibody, V domains shown)
VH: EVQLLESGGGLVQPGGSLRLSCAASGFTFSSYAMSWVRQAPGKGLEWVSSIWYQGLVTVYADSVKGRFTISRDNSKNTLYLQMNSLRAEDTAVYYCAKWSAAFDYWGQGTLVTVSS
VL: DIQMTQSPSSLSASVGDRVTITCRASQSISSYLNWYQQKPGKAPKLLIYYASTLQSGVPSRFSGSGSGTDFTLTISSLQPEDFATYYCQQDNGYPSTFGQGTKVEIKR
notes: Fully human IgG; also called PDL1 G12H9
In the case of B10, the binding result in assay [3] is reported as “binds”.

B11: PDL1 h9 Fab-phage (Fab, V domains shown)
VH: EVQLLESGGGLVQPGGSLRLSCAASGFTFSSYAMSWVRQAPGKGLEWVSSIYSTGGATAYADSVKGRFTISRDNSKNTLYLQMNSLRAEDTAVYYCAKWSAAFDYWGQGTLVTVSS
VL: DIQMTQSPSSLSASVGDRVTITCRASQSISSYLNWYQQKPGKAPKLLIYYASTLQSGVPSRFSGSGSGTDFTLTISSLQPEDFATYYCQQDNGYPSTFGQGTKVEIKR
notes: also called CDR3 clone H9
B11: the binding result in assay [14] is given as “binds”; in [7], “no binding”.

B12: PDL1 H06 Fab-phage (Fab, V domains shown)
VH: EVQLLESGGGLVQPGGSLRLSCAASGFTFSSYAMSWVRQAPGKGLEWVSSIWRQGLATAYDSVKGRFTISRDNSKNTLYLQMNSLRAEDTAVYYCAKSSAGFDYWGQGTLVTVSS
VL: DIQMTQSPSSLSASVGDRVTITCRASQSISSYLNWYQQKPGKAPKLLIYYASTLQSGVPSRFSGSGSGTDFTLTISSLQPEDFATYYCQQDNGYPSTFGQGTKVEIKR
Turning to B12, the binding result in [7] is listed as “no binding”.

B13: anti-PDL1 antibody G12E10 (antibody, V domains shown)
VH: EVQLLESGGGLVQPGGSLRLSCAASGFTFSSYAMSWVRQAPGKGLEWVSSIWYQGLVTVYADSVKGRFTISRDNSKNTLYLQMNSLRAEDTAVYYCAKWSKGFDYWGQGTLVTVSS
VL: DIQMTQSPSSLSASVGDRVTITCRASQSISSYLNWYQQKPGKAPKLLIYYASTLQSGVPSRFSGSGSGTDFTLTISSLQPEDFATYYCQQDNGYPSTFGQGTKVEIKR
notes: Fully human IgG; also called PDL1 G12E10
B13: the binding result in assay [3] is given as “binds”.
